Measurements taken from article PMC5718245.

Tests used:
[1] = target: PSD95 PDZ3 (Rattus norvegicus) (UniProt P31016); details: cited from earlier work
[2] = target: GST-PDZ3 fusion protein (PDZ3 domain of SAP97); experiment: SPR; Biacore3000; anti-GST antibody immobilised, GST-PDZ3 captured (1200-1700 RU), GST on the reference cell subtracted; peptides as analytes at 62.5 nM to 12.8 µM, 30 µl/min; HBS (0.01 M HEPES, 0.15 M NaCl, 3 mM EDTA, 0.005% Surfactant P20); steady-state affinity fit, 1:1 model

Chain of UniProt P31016 (P31016 310-396): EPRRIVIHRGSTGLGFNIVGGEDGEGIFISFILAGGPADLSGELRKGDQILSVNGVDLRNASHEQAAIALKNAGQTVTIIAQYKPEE

| Molecule | Kd [1] | Kd [2] |
| --- | --- | --- |
| CRIPT C-terminal 9 amino acids (from UniProt Q792Q4) | 1 µM | – |
| AMCGKKVLDTKNYKQTSV [peptide CHRK1 (C-terminal 18 amino acids of CRIPT)] | – | 6.57 µM |
